Source: PMC6707876 (Nature microbiology, 2019)

B1: 053054 single-chain variable fragment (scFv, V domains shown)
VH: QVQLQESGPGLVKPSQTLSLTCNVSGDSINSGDYYWIWIRQPPGKGLEWIGNIYYSGTAYYNPSLKTRLIISIDTSTNQFSLKVTSVTAADTAIYYCARASTTVVSPWLDPWGQGTLVTVSS
VL: SYELTQPSSVAVAPGQTARIPCGGDNIESKGVHWYQQKPGQAPVLVVYDDHDRPSGIPERFSGSNSGNTATLTVSRVEAGDEADYYCQVWDTSSEHPVFGGGTKLTVL
B2: 092096 single-chain variable fragment (scFv, V domains shown)
VH: QVQLVQSGAEVKKPGASVKVSCKVSGYTLTELSMHWVRQAPGKGLEWMGGFDREDGESIYAQKFQGRVTLTEDTSTDSVYMELSNLRSDDTAVYFCATDFGGSYFYAFDIWGQGTMVTVSS
VL: not shown
B3: human monoclonal antibody 053054 (full-length IgG1) (antibody, V domains shown)
VH: B1 VH
VL: B1 VL
B4: human monoclonal antibody 092096 (full-length IgG1) (antibody, V domains shown)
VH: B2 VH
VL: not shown

Tests used:
[1] = target: T1, biotinylated BirA-tagged Sal-1 DBP-II (Plasmodium vivax, UniProt P22290, biotin (added with BirA ligase on the BirA tag)); assay: BLI
[2] = target: T1, biotinylated BirA-tagged Sal-1 DBP-II; assay: flow cytometry on cells

T1 sequence (P22290 211-525): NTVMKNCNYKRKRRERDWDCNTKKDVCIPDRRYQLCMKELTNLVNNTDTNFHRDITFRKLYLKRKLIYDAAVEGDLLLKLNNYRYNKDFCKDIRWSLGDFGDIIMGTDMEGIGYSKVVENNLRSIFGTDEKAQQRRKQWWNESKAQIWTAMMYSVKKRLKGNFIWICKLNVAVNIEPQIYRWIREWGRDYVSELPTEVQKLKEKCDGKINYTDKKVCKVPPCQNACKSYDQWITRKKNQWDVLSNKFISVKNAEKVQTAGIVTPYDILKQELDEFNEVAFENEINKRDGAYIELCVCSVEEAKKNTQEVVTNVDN

Binder | Kd [1] | IC50 [2]
B1 | 7.44 ± 0.36 nM | –
B2 | 7.63 ± 0.29 nM | –
B3 | – | 4.88 ± 1.06 nM
B4 | – | 1.63 ± 1.07 nM
